Article PMC11975286, “Functional dissection of the conserved C. elegans LEM-3/ANKLE1 nuclease reveals a crucial requirement for the LEM-like and GIY-YIG domains for DNA bridge processing”

Columns and labels:
LEM-3(241-704) = target: T1, LEM-3(241-704) (Caenorhabditis elegans, UniProt G5EGA3 241-704); assay: EMSA; no divalent metal, 100 mM Na+; 0.13 nM HJ; cooperative (Hill) fit; 10 mM Tris-HCl pH 7.5, 100 mM NaCl, 5% glycerol, 5 ng/ul poly(dI-dC), 4 C, 1 h; 8.3 nM HJ-X0-1 (0.13 nM for Kd); 6% native PAGE, 0.5x TBE, 4 C; details: protein: recombinant; tags: His-GST removed by TEV; label: 5'-Cy5 on X0-1; four-way junction of 4 strands, 1 copy each
T1 sequence: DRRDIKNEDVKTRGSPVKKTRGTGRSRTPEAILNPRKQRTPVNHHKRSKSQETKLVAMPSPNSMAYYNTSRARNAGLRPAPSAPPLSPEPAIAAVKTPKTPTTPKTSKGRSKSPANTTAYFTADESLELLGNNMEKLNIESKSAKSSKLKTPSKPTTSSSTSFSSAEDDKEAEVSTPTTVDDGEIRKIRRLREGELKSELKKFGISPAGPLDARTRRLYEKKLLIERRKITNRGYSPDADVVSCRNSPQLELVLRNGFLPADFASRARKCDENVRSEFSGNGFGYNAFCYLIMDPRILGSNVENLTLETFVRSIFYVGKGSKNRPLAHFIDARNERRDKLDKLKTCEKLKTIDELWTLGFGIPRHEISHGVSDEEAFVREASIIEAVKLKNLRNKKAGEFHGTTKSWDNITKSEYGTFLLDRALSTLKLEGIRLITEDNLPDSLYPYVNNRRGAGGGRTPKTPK

LEM-3(485-704) = target: T2, LEM-3(485-704) (Caenorhabditis elegans, UniProt G5EGA3 485-704); assay: EMSA; no divalent metal, 100 mM Na+; 10 mM Tris-HCl pH 7.5, 100 mM NaCl, 5% glycerol, 5 ng/ul poly(dI-dC), 4 C, 1 h; 8.3 nM HJ-X0-1 (0.13 nM for Kd); 6% native PAGE, 0.5x TBE, 4 C; details: protein: recombinant; tags: His-GST removed by TEV; label: 5'-Cy5 on X0-1; four-way junction of 4 strands, 1 copy each
T2 sequence: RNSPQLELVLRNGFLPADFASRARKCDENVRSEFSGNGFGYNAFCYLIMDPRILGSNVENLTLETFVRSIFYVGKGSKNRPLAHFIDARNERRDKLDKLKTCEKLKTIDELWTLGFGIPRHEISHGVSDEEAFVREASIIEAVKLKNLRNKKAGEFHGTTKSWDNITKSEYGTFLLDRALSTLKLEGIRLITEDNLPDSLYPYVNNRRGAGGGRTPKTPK

B1: HJ-X0-1 (immobile Holliday junction) (structured_DNA)
DNA 1: ACGCTGCCGAATTCTACCAGTGCCTTGCTAGGACATCTTTGCCCACCTGCAGGTTCACCC
DNA 2: GGGTGAACCTGCAGGTGGGCAAAGATGTCCATCTGTTGTAATCGTCAAGCTTTATGCCGT
DNA 3: ACGGCATAAAGCTTGACGATTACAACAGATCATGGAGCTGTCTAGAGGATCCGACTATCG
DNA 4: CGATAGTCGGATCCTCTAGACAGCTCCATGTAGCAAGGCACTGGTAGAATTCGGCAGCGT
Kd (LEM-3(241-704)): ~40 nM | binding result (LEM-3(485-704)): no binding
